In patent US20090291890A1 (published 2009) one finds kcat/KM, TF-Dependent Indirect Assay data, which are given here for nine molecules.

B1: FVIIa variant Q286R/M298Q/K341D (enzyme)
chain: ANAFLEELRPGSLERECKEEQCSFEEAREIFKDAERTKLFWISYSDGDQCASSPCQNGGSCKDQLQSYICFCLPAFEGRNCETHKDDQLICVNENGGCEQYCSDHTGTKRSCRCHEGYSLLADGVSCTPTVEYPCGKIPILEKRNASKPQGRIVGGKVCPKGECPWQVLLLVNGAQLCGGTLINTIWVVSAAHCFDKIKNWRNLIAVLGEHDLSEHDGDEQSRRVAQVIIPSTYVPGTTNHDIALLRLHQPVVLTDHVVPLCLPERTFSERTLAFVRFSLVSGWGRLLDRGATALELQVLNVPRLMTQDCLQQSRKVGDSPNITEYMFCAGYSDGSKDSCDGDSGGPHATHYRGTWYLTGIVSWGQGCATVGHFGVYTRVSQYIEWLQKLMRSEPRPGVLLRAPFP
B2: FVIIa variant Q286R/Q366D (enzyme)
chain: ANAFLEELRPGSLERECKEEQCSFEEAREIFKDAERTKLFWISYSDGDQCASSPCQNGGSCKDQLQSYICFCLPAFEGRNCETHKDDQLICVNENGGCEQYCSDHTGTKRSCRCHEGYSLLADGVSCTPTVEYPCGKIPILEKRNASKPQGRIVGGKVCPKGECPWQVLLLVNGAQLCGGTLINTIWVVSAAHCFDKIKNWRNLIAVLGEHDLSEHDGDEQSRRVAQVIIPSTYVPGTTNHDIALLRLHQPVVLTDHVVPLCLPERTFSERTLAFVRFSLVSGWGRLLDRGATALELMVLNVPRLMTQDCLQQSRKVGDSPNITEYMFCAGYSDGSKDSCKGDSGGPHATHYRGTWYLTGIVSWGDGCATVGHFGVYTRVSQYIEWLQKLMRSEPRPGVLLRAPFP
B3: FVIIa variant Q286R/K341D (enzyme)
chain: ANAFLEELRPGSLERECKEEQCSFEEAREIFKDAERTKLFWISYSDGDQCASSPCQNGGSCKDQLQSYICFCLPAFEGRNCETHKDDQLICVNENGGCEQYCSDHTGTKRSCRCHEGYSLLADGVSCTPTVEYPCGKIPILEKRNASKPQGRIVGGKVCPKGECPWQVLLLVNGAQLCGGTLINTIWVVSAAHCFDKIKNWRNLIAVLGEHDLSEHDGDEQSRRVAQVIIPSTYVPGTTNHDIALLRLHQPVVLTDHVVPLCLPERTFSERTLAFVRFSLVSGWGRLLDRGATALELMVLNVPRLMTQDCLQQSRKVGDSPNITEYMFCAGYSDGSKDSCDGDSGGPHATHYRGTWYLTGIVSWGQGCATVGHFGVYTRVSQYIEWLQKLMRSEPRPGVLLRAPFP
B4: FVIIa variant Q286R/H373F (enzyme)
chain: ANAFLEELRPGSLERECKEEQCSFEEAREIFKDAERTKLFWISYSDGDQCASSPCQNGGSCKDQLQSYICFCLPAFEGRNCETHKDDQLICVNENGGCEQYCSDHTGTKRSCRCHEGYSLLADGVSCTPTVEYPCGKIPILEKRNASKPQGRIVGGKVCPKGECPWQVLLLVNGAQLCGGTLINTIWVVSAAHCFDKIKNWRNLIAVLGEHDLSEHDGDEQSRRVAQVIIPSTYVPGTTNHDIALLRLHQPVVLTDHVVPLCLPERTFSERTLAFVRFSLVSGWGRLLDRGATALELMVLNVPRLMTQDCLQQSRKVGDSPNITEYMFCAGYSDGSKDSCKGDSGGPHATHYRGTWYLTGIVSWGQGCATVGFFGVYTRVSQYIEWLQKLMRSEPRPGVLLRAPFP
B5: FVIIa variant M298Q/H373F (enzyme)
chain: ANAFLEELRPGSLERECKEEQCSFEEAREIFKDAERTKLFWISYSDGDQCASSPCQNGGSCKDQLQSYICFCLPAFEGRNCETHKDDQLICVNENGGCEQYCSDHTGTKRSCRCHEGYSLLADGVSCTPTVEYPCGKIPILEKRNASKPQGRIVGGKVCPKGECPWQVLLLVNGAQLCGGTLINTIWVVSAAHCFDKIKNWRNLIAVLGEHDLSEHDGDEQSRRVAQVIIPSTYVPGTTNHDIALLRLHQPVVLTDHVVPLCLPERTFSERTLAFVRFSLVSGWGQLLDRGATALELQVLNVPRLMTQDCLQQSRKVGDSPNITEYMFCAGYSDGSKDSCKGDSGGPHATHYRGTWYLTGIVSWGQGCATVGFFGVYTRVSQYIEWLQKLMRSEPRPGVLLRAPFP
B6: FVIIa variant Q286R/M298Q/Q366D (enzyme)
chain: ANAFLEELRPGSLERECKEEQCSFEEAREIFKDAERTKLFWISYSDGDQCASSPCQNGGSCKDQLQSYICFCLPAFEGRNCETHKDDQLICVNENGGCEQYCSDHTGTKRSCRCHEGYSLLADGVSCTPTVEYPCGKIPILEKRNASKPQGRIVGGKVCPKGECPWQVLLLVNGAQLCGGTLINTIWVVSAAHCFDKIKNWRNLIAVLGEHDLSEHDGDEQSRRVAQVIIPSTYVPGTTNHDIALLRLHQPVVLTDHVVPLCLPERTFSERTLAFVRFSLVSGWGRLLDRGATALELQVLNVPRLMTQDCLQQSRKVGDSPNITEYMFCAGYSDGSKDSCKGDSGGPHATHYRGTWYLTGIVSWGDGCATVGHFGVYTRVSQYIEWLQKLMRSEPRPGVLLRAPFP
B7: FVIIa variant Q286R/M298Q/H373F (enzyme)
chain: ANAFLEELRPGSLERECKEEQCSFEEAREIFKDAERTKLFWISYSDGDQCASSPCQNGGSCKDQLQSYICFCLPAFEGRNCETHKDDQLICVNENGGCEQYCSDHTGTKRSCRCHEGYSLLADGVSCTPTVEYPCGKIPILEKRNASKPQGRIVGGKVCPKGECPWQVLLLVNGAQLCGGTLINTIWVVSAAHCFDKIKNWRNLIAVLGEHDLSEHDGDEQSRRVAQVIIPSTYVPGTTNHDIALLRLHQPVVLTDHVVPLCLPERTFSERTLAFVRFSLVSGWGRLLDRGATALELQVLNVPRLMTQDCLQQSRKVGDSPNITEYMFCAGYSDGSKDSCKGDSGGPHATHYRGTWYLTGIVSWGQGCATVGFFGVYTRVSQYIEWLQKLMRSEPRPGVLLRAPFP
B8: FVIIa variant Q286R/Q366N (enzyme)
chain: ANAFLEELRPGSLERECKEEQCSFEEAREIFKDAERTKLFWISYSDGDQCASSPCQNGGSCKDQLQSYICFCLPAFEGRNCETHKDDQLICVNENGGCEQYCSDHTGTKRSCRCHEGYSLLADGVSCTPTVEYPCGKIPILEKRNASKPQGRIVGGKVCPKGECPWQVLLLVNGAQLCGGTLINTIWVVSAAHCFDKIKNWRNLIAVLGEHDLSEHDGDEQSRRVAQVIIPSTYVPGTTNHDIALLRLHQPVVLTDHVVPLCLPERTFSERTLAFVRFSLVSGWGRLLDRGATALELMVLNVPRLMTQDCLQQSRKVGDSPNITEYMFCAGYSDGSKDSCKGDSGGPHATHYRGTWYLTGIVSWGNGCATVGHFGVYTRVSQYIEWLQKLMRSEPRPGVLLRAPFP
B9: FVIIa variant Q286R/M298Q/Q366N (enzyme)
chain: ANAFLEELRPGSLERECKEEQCSFEEAREIFKDAERTKLFWISYSDGDQCASSPCQNGGSCKDQLQSYICFCLPAFEGRNCETHKDDQLICVNENGGCEQYCSDHTGTKRSCRCHEGYSLLADGVSCTPTVEYPCGKIPILEKRNASKPQGRIVGGKVCPKGECPWQVLLLVNGAQLCGGTLINTIWVVSAAHCFDKIKNWRNLIAVLGEHDLSEHDGDEQSRRVAQVIIPSTYVPGTTNHDIALLRLHQPVVLTDHVVPLCLPERTFSERTLAFVRFSLVSGWGRLLDRGATALELQVLNVPRLMTQDCLQQSRKVGDSPNITEYMFCAGYSDGSKDSCKGDSGGPHATHYRGTWYLTGIVSWGNGCATVGHFGVYTRVSQYIEWLQKLMRSEPRPGVLLRAPFP

The experiment deals with Factor X (FX) (Homo sapiens (Human)) (UniProt P00742).
Sequence of Factor X (FX) (Homo sapiens (Human)) (P00742 41-488 limits assumed): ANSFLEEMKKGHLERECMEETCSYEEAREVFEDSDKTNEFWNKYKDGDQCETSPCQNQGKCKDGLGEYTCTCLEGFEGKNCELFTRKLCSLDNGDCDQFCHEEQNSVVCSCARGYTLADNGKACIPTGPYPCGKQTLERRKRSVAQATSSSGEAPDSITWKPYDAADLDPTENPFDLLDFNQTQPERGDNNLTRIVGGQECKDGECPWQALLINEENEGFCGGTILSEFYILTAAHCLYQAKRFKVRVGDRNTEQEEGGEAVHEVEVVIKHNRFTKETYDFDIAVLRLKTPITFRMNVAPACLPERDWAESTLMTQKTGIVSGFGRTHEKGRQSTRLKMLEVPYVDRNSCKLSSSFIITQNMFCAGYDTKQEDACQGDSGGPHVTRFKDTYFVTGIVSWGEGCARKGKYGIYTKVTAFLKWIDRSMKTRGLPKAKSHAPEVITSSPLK
Consider B1, for which the kcat/KM, TF-Dependent Indirect Assay came out at 1.18e+07 M⁻¹ s⁻¹.
The figure for B2 is 1.53e+07 M⁻¹ s⁻¹; for B3 it is 1.11e+07 M⁻¹ s⁻¹.
The figure for B4 is 9.08e+07 M⁻¹ s⁻¹; for B5 it is 8.49e+07 M⁻¹ s⁻¹; for B6 it is 1.91e+07 M⁻¹ s⁻¹.
Consider B7, for which the kcat/KM, TF-Dependent Indirect Assay worked out at 1.51e+08 M⁻¹ s⁻¹.
The figure for B8 is 5.42e+07 M⁻¹ s⁻¹; for B9 it is 1.04e+08 M⁻¹ s⁻¹.
